From PMC2732195

Molecular target: wild type presenilin 1 (PS1) (UniProt P49768)
Experiment: FRET or BRET

wild type human APP C99 (from UniProt P05067 672-770) (domain or fragment)
Alexa 430 donor lifetime (FRET): 1230 ps
Alexa 488 donor lifetime (FLIM), average per cell: 1890 ps
Alexa 488 donor lifetime (FLIM), cell interior: 2090 ps
Alexa 488 donor lifetime (FLIM), cell periphery: 1420 ps
FRET strength normalized to WT APP (normalized to WT APP): 100
